Measured values taken from paper PMC9828297 (Acta Biochimica et Biophysica Sinica, 2022).

Molecular target: the molecule itself
Assay: SEC

B1: polyketide cyclase from Mycobacterium tuberculosis (MtPC) (natural protein)
chain: MGSTPPRTPQEVFAHHGQALAAGDLDEIVADYADDSFVITPAGIARGKEGIRQLFVKLLDDIPNALWDLKTQIFEGDILFLEWTANSAVSRVDDGVDTFVFRDGTIWAHTVRYTPHPKT
With B1 the “stoichiometry N” value was 2.
